Results on nine molecules are retold here after KR20140009174A (dated 2014).

For assay [1], the target named is T1, 인간 CXCR4 (케모카인 (C-X-C 모티브) 수용체 4) (human, UniProt P61073 1-352).
T1 construct: also called hCXCR4; CXCR4 수용체
Briefly: competition flow cytometry on NIH3T3-CXCR4 cells; competitor biotinylated mouse 515H7.

Assay [2] deals with T1, 인간 CXCR4 (케모카인 (C-X-C 모티브) 수용체 4). Briefly: competition flow cytometry on NIH3T3-CXCR4 cells; competitor biotinylated mouse 515H7 (legend of Fig. 19).
The target of assay [3] is CXCR4/Rluc + CXCR4/YFP (HEK293 세포의 CXCR4 동종이량체 BRET 파트너) (human; Renilla reniformis). The assay can be described thus: cell-based or functional assay.
The target of assay [4] is T1, 인간 CXCR4 (케모카인 (C-X-C 모티브) 수용체 4). The assay can be described thus: cell-based or functional assay.
For assay [5] the target is unchanged. Briefly: FACS on NIH3T3-CXCR4 cells (legend of Fig. 21).

Positions count from the first letter of the chain named. In names and notes the source's numbering stands.

Chain of CXCR4/Rluc + CXCR4/YFP (HEK293 세포의 CXCR4 동종이량체 BRET 파트너) (human; Renilla reniformis) (chain, as listed by the source, chain 1 of 2): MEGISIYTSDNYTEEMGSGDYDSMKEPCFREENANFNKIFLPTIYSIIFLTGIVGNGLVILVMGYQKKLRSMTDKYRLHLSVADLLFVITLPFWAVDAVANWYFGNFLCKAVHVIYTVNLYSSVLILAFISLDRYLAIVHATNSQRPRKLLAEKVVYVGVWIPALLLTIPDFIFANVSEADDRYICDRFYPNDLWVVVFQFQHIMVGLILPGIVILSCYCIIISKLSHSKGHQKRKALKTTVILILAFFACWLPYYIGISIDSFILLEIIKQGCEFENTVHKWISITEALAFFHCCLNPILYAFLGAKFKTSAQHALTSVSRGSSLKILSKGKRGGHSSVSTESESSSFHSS
Chain of CXCR4/Rluc + CXCR4/YFP (HEK293 세포의 CXCR4 동종이량체 BRET 파트너) (human; Renilla reniformis) (chain, as listed by the source, chain 2 of 2): as the sequence (chain, as listed by the source, chain 1 of 2) above
T1 sequence (P61073 whole entry): as the sequence (chain, as listed by the source, chain 1 of 2) above

B1: 515H7 인간화 VH 변형체 1 (VH1) + 마우스/키메라 VL (cVL) (antibody, human IgG1, kappa)
heavy: not shown
light: DIVMSQSPSSLAVSAGEKVTMSCKSSQSLFNSRTRKNYLAWYQQKPGQSPKLLIYWASARDSGVPARFTGSGSETYFTLTISRVQAEDLAVYYCMQSFNLRTFGQGTKVEIKRTVAAPSVFIFPPSDEQLKSGTASVVCLLNNFYPREAKVQWKVDNALQSGNSQESVTEQDSKDSTYSLSSTLTLSKADYEKHKVYACEVTHQGLSSPVTKSFNRGEC
notes: also called VH1 cVL; VH 변형체 1 (VH1) 마우스 VL 조합
With B1, the binding result in assay [1] is listed as “binds”.

B2: hz515H7 VH1 VL2 (VH 변형체 1 + VL 변형체 2) (antibody, human IgG1, kappa)
heavy: not shown
light: B1 light with S5T, A15L, K18R, V19A
For the molecule B2, the binding result in assay [2] is on record as “binds”.

B3: 항-CXCR4 Mab 301aE5 (마우스 모노클론 항체) (antibody, V domains shown)
VH: QVQLKESGPGLVAPSQSLSITCTVSGFSLTDYGVYWVRQPPGKGLEWLGMIWGDGTTDYNSALKSRLSISKDNSKSQVFLKMNTLQTDDTARYYCARGRQFGFDYWGQGTTLTVSS
VL: DIVMSQSPSSLAVSAGEKVTMRCKSSQSLFNSRTRKNYLAWYQQKPGQSPKLLIFWASIRESGVPDRFTGSGSGTDFTLTISSVQAEDLAVYYCKQSYNLRTFGGGTKLEIK
For the molecule B3, the “SDF-1-유도성 BRET 증가의 저해” value in assay [3] came to 69%.

B4: 항-CXCR4 키메라 Mab c515H7 (antibody, human IgG1, kappa, V domains shown)
VH: EVNLVESGGGLVQPGGSLRLSCATSGFTFTDNYMSWVRQPPGKALEWLGFIRNKANGYTTDYSASVRGRFTISRDNSQSILYLQMNALRAEDSATYYCARDVGSNYFDYWGQGTTLTVSS
VL: DIVMSQSPSSLAVSAGEKVTMSCKSSQSLFNSRTRKNYLAWYQQKPGQSPKLLIYWASARDSGVPARFTGSGSETYFTLTISRVQAEDLAVYYCMQSFNLRTFGQGTKVEIKR
Take B4: in assay [4], the “IC50, 89.6 복제 저해, 마라비록 2 μg/ml 첨가 시” value worked out at 0.2 µg/mL and the “IC50, 인간 PBMC에서 이중 친화성 X4R5 바이러스 89.6 복제 저해 (다수 회차 검정법)” value came out at 2 µg/mL. Further, the “SDF-1-유도성 BRET 증가의 저해” value in assay [3] came out at 96%.

B5: 항-CXCR4 Mab 515H7 (마우스 모노클론 항체) (antibody, V domains shown)
VH: B4 VH
VL: B3 VL with R22S, F55Y, I59A, E61D, D66A, G74E, D76Y, S83R, K95M, Y98F
Take B5: the “SDF-1-유도성 BRET 증가의 저해” value in assay [3] turned out to be 69%.

B6: hz515H7 VH1 D76N VL2.1 (antibody, V domains shown)
VH: EVQLVESGGGLVQPGRSLRLSCTASGFTFTDNYMSWVRQAPGKGLEWVGFIRNKANGYTTEYAASVKGRFTISRDNSKSIAYLQMNSLKTEDTAVYYCARDVGSNYFDYWGQGTLVTVSS
VL: B4 VL with S5T, S9D, A15L, K18R, V19A, S49P, A66D, T69S
B6: the “SDF-1-유도성 BRET 증가의 저해 백분율” value in assay [3] amounted to 65%. Moreover, the binding result in assay [5] was “binds”.

B7: hz515H7 VH1 D76N VL2 (antibody, V domains shown)
VH: B6 VH
VL: B4 VL with S5T, A15L, K18R, V19A
notes: also called hz515H7 VH1 D76N-VL2 Mab; 인간화 515H7 Mab
Take B7: in assay [3], the “SDF-1-유도성 BRET 증가의 저해 백분율” value was approximately 88%. Further, the binding result in assay [5] was “binds”.

B8: hz515H7 VH1 D76N VL2.3 (antibody, V domains shown)
VH: B6 VH
VL: B4 VL with S5T, S9D, A15L, K18R, V19A, S49P, A66D, R83S, V84L
Consider B8, for which, in assay [3], the “SDF-1-유도성 BRET 증가의 저해 백분율” value was determined as 21%. In assay [5], the binding result is recorded as “binds”.

B9: hz515H7 VH1 D76N VL2.2 (antibody, V domains shown)
VH: B6 VH
VL: B4 VL with S5T, S9D, A15L, K18R, V19A, S49P, A66D, L89V
Consider B9, for which, in assay [3], the “SDF-1-유도성 BRET 증가의 저해 백분율” value stood at 33%. Besides, the binding result in assay [5] is “binds”.
